From PMC6778195

How the values were obtained:
ICAM-1^D1D5-Fc [1] = target: ICAM-1^D1D5-Fc (UniProt P05362); assay: SPR; ICAM-1^D1D5-Fc immobilized to 850 RU on a CM5 chip precoupled with Protein A; IT4var13 DBLβ proteins 0.9 nM to 250 nM injected at 30 µL/min, 240 s association, 600 s dissociation; 20 mM Hepes, 300 mM NaCl, 0.005% Tween 20, pH 7.2; Biacore T200; global fit to a 2-state reaction model
ICAM-1^D1D5-Fc [2] = target: ICAM-1^D1D5-Fc (UniProt P05362); assay: SPR; conditions: for response: top curve of the dilution series (500 nM), read at end of injection (~300 s), parent: est. 240, read off a plot

Chain of ICAM-1^D1D5-Fc (P05362 28-480): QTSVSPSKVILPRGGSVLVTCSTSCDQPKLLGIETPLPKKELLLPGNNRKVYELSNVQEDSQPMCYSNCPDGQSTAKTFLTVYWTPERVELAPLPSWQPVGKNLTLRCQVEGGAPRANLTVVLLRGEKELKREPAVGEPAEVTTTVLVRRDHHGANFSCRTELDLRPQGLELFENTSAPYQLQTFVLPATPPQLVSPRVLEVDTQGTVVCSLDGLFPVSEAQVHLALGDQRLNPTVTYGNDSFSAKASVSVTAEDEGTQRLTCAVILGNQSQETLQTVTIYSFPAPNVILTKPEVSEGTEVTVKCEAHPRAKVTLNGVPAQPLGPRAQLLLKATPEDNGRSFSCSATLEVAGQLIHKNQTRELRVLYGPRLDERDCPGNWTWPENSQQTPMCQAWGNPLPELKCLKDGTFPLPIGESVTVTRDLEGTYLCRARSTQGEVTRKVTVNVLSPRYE

Substance	response (ICAM-1^D1D5-Fc [2]) [RU]	other results
IT4var13 DBLβ Q1103A (domain or fragment)		fold decrease in affinity against wild type (ICAM-1^D1D5-Fc [1]): 200 fold
IT4var13 DBLβ domain (wild type) (domain or fragment)		Kd (ICAM-1^D1D5-Fc [2]): 1.22 nM
J1a DBLβ domain (wild type) G1117A	35	
J1a DBLβ domain (wild type) L1093D	260	
J1a DBLβ domain (wild type) L1096D	140	
J1a DBLβ domain (wild type) Y1097A	25	
